In experiment [1] the test system is PINK1+/+ or PINK1−/− MEFs. The experiment in a line: YFP-Parkin recruitment to mitochondria in MEFs. The following applies: for Parkin recruited to mitochondria, % of cells: CCCP. The experiment is classed as cell-based, mouse. From the text: (§1) HeLa YFP-Parkin, PINK1+/+ SV40 transformed MEFs cells, PINK1−/− SV40 transformed MEF, M17 neuroblastoma control shRNA, M17 neuroblastoma PINK1, and Mfn1/2−/− MEF cell lines have been described previously (Narendra (2008) J Cell Biol 183: 795-803). PINK1+/+ and PINK1−/− primary MEFs were isolated from embryos using a standard protocol (Gautier (2008) Proc Natl Acad Sci USA 105: 11364-11369). Parkin+/+ and Parkin−/− transformed MEFs were created by isolation of primary cells from embryos of B6.129S4-Park2tm1Shn/J mice (Jackson Labs), using a standard protocol (Gautier (2008) Proc Natl Acad Sci USA 105: 11364-11369), followed by retroviral transduction of SV40 (Applied Biological Materials, Inc.). YFP-Parkin, YFPParkin mutants, mCherry-Parkin, PINK1-YFP, PINK1 KD-YFP, PINK1 Δ1-110-YFP, and Opa3-PINK1 Δ1-110-YFP are in C1 or N1 Clontech vectors. PINK1WT-V5, PINK1 KD-V5, and PINK1 Δ1-156-V5 are in pDest40 vector (Invitrogen). PINK1 patient mutations are in pLenti-V5 vector (Invitrogen). PINK1-myc is in a pCMBTNT vector (Promega).
(§2) Confocal microscopy of fixed samples, scoring of Parkin recruitment and Parkininduced mitophagy, and live cell imaging were performed as described previously (Narendra (2008) J Cell Biol 183: 795-803). Experiments in Mfn1/2 null cells were performed as described previously with minor modifications.
HeLa YFP-Parkin, E18 Rat cortical neurons, PINK1^+/+ SV40 transformed MEFs cells, PINK1^−/− SV40 transformed MEF, M17 neuroblastoma control shRNA, M17 neuroblastoma PINK1, Mfn1/2^−/− MEF, and Parl^−/− MEF cell lines have been described previously (Narendra (2008) J Cell Biol 183: 795-803). PINK1^+/+ and PINK1^−/− primary MEFs were isolated from embryos using a standard protocol (Gautier (2008) Proc Natl Acad Sci USA 105: 11364-11369). Parkin^+/+ and Parkin^−/− transformed MEFs were created by isolation of primary cells from embryos of B6.129S4-Park2^tm1Shn/J mice (Jackson Labs), using a standard protocol (Gautier (2008) Proc Natl Acad Sci USA 105: 11364-11369), followed by retroviral transduction of SV40 (Applied Biological Materials, Inc.). YFP-Parkin, YFP-Parkin mutants, mCherry-Parkin, PINK1-YFP, PINK1 KD-YFP, PINK1 Δ1-110-YFP, and Opa3-PINK1 Δ1-110-YFP are in C1 or N1 Clontech vectors. PINK1WT-V5, PINK1 KD-V5, and PINK1 Δ1-156-V5 are in pDest40 vector (Invitrogen). PINK1 patient mutations are in the pLenti-V5 vector (Invitrogen). PINK1-myc is in a pCMBTNT vector (Promega). The PARL shRNA construct targeting (5′ […] 3′) is in the pSuper-GFP vector. To make FRB-PINK1 (111-581)-YFP and Tom20 (1-33)-FKBP, PCR fragments containing PINK1 (111-581)-YFP and Tom20 (1-33) were cloned into the BamHI site of the pC4-RHE vector and the EcoRI and XbaI sites of pC4M-F2E vectors, respectively (ARIAD Pharmaceuticals). The rapamycin analogue AP21967 was obtained from ARIAD Pharmaceuticals. The PARL shRNA construct targeting (5′ […] 3′) is in the pSuper-GFP vector (OligoEngine).
(§3) Confocal microscopy of fixed samples, scoring of Parkin recruitment and Parkin-induced mitophagy, and live cell imageing were performed as described previously (Narendra (2008) J Cell Biol 183: 795-803). Experiments in Mfn1/2 null cells were performed as described previously with minor modifications described in the supplemental methods (Narendra (2008) J Cell Biol 183: 795-803).

Experiment [2] has as its system PINK1+/+ or PINK1−/− MEFs. As to the kind of experiment: Parkin-induced mitophagy in MEFs. The settings on record: primary MEFs expressing YFP-Parkin, 20 μM CCCP, 24 hours; PINK1+/+ (CCCP line) or PINK−/− reconstituted with PINK1. The experiment is classed as cell-based, mouse.
Text: as §1
Confocal microscopy of fixed samples, scoring of Parkin recruitment and Parkininduced mitophagy, and live cell imaging were performed as described previously (Narendra (2008) J Cell Biol 183: 795-803). Experiments in Mfn1/2 null cells were performed as described previously with minor modifications. […]

The subject of experiment [3] is HeLa cells. As to the kind of experiment: Live cell imaging, time to Parkin translocation. The experiment is classed as cell-based. The settings on record: mCherry-Parkin alone (CCCP line) or with PINK1-YFP 1:1, 10 μM CCCP. As to the method:
FIGS. 13A-13D show the kinetics of Parkin recruitment are modulated by PINK1 expression. […] The cells were imaged live following the addition of 10 μM CCCP in serum at time point 0 min FIG. 13B lists the vectors used for transfection of HeLa cells with mCherry-Parkin and the indicated construct in a 1:1 ratio were treated as in (A) and imaged live (1 frame/minute) following the addition of CCCP. Time to the beginning of Parkin translocation was defined as the first appearance of puncta in ≧2 quandrants of the cell for ≧2 consecutive images for ≧6 cells in ≧3 independent experiments. […] Cells were loaded with TMRE (red) to stain polarized mitochondria. Cells were not treated with CCCP. Scale bars in last image=10 μm. FIG. 13D is a graph that quantitates results in cells treated as described in FIG. 13C, which were scored for co-localization between YFP-Parkin and TMRE. ≧50 cells/experiment were scored in ≧3 independent experiments.
as §3

Experiment [4] concerns HeLa cells. As to the kind of experiment: Parkin-induced mitophagy, loss of mitochondria by immunocytochemistry. The experiment is classed as cell-based. As to the method:
Cultured cells seeded in borosilicate chamber slides (Thermo Fisher Scientific) were transfected or cotransfected with YFP-Parkin, ECFP-Parkin, mCherry-Parkin, DsRed-Mito (Clontech Laboratories, Inc.), pcDNA3.1 (Invitrogen), vMIA, and/or Drp1K38A constructs using Fugene 6 (Roche). Parkin-myc was a gift from M. Cookson (National Institutes of Health, Bethesda, Md.). Cells were fixed 12-24 hours after transfection with 4% paraformaldehyde in PBS. Cells were stained with following primary antibodies: mouse monoclonal cytochrome c (BD), rabbit polyclonal Tom20 (Santa Cruz Biotechnology, Inc.), mouse monoclonal Parkin PRK8 (Santa Cruz Biotechnology, Inc.), rabbit polyclonal PMP70 (Invitrogen), and/or mouse monoclonal TRAP1 (Abcam); and with the following secondary antibodies: mouse and/or rabbit Alexa 488, 594, and 633 (Invitrogen). For assessment of mitochondrial membrane potential, cells were pulsed with 50 nM Mito-Tracker red (Invitrogen) for 15 min, washed, and incubated for an additional 10 minutes before fixation or imaging. For assessment of cell metabolic potential, cell nuclei were stained with Hoechst 33342 (Invitrogen).
as §2, §3

As to `N#CC(C#N)=NNc1cccc(Cl)c1` [CCCP, carbonyl cyanide m-chlorophenylhydrazone], in experiment [1] (PINK1+/+ primary MEFs, 20 μM CCCP, 3 hours), the “YFP-Parkin recruited to mitochondria, % of cells” value was 43.3±8.1%. For the same molecule, in experiment [1] (SV40 transformed PINK1+/+ MEFs), the “Parkin recruited to mitochondria, % of cells” value came out at 60.7±7.7%. Moreover, the “cells with no detectable mitochondria” value in experiment [2] is given as 66.1±16.8%. Further, in experiment [3], the “time to translocation of Parkin” value was determined as 32.0 ± 5.4 min.

B1: YFP-Parkin: YFP-tagged Parkin E3 ligase expressed from a transfected vector (protein, UniProt O60260 1-465, looked up)
E3 ubiquitin-protein ligase …: MIVFVRFNSSHGFPVEVDSDTSIFQLKEVVAKRQGVPADQLRVIFAGKELRNDWTVQNCDLDQQSIVHIVQRPWRKGQEMNATGGDDPRNAAGGCEREPQSLTRVDLSSSVLPGDSVGLAVILHTDSRKDSPPAGSPAGRSIYNSFYVYCKGPCQRVQPGKLRVQCSTCRQATLTLTQGPSCWDDVLIPNRMSGECQSPHCPGTSAEFFFKCGAHPTSDKETSVALHLIATNSRNITCITCTDVRSPVLVFQCNSRHVICLDCFHLYCVTRLNDRQFVHDPQLGYSLPCVAGCPNSLIKELHHFRILGEEQYNRYQQYGAEECVLQMGGVLCPRPGCGAGLLPEPDQRKVTCEGGNGLGCGFAFCRECKEAYHEGECSAVFEASGTTTQAYRVDERAAEQARWEAASKETIKKTTKPCPRCHVPVEKNGGCMHMKCPQPQCRLEWCWNCGCEWNRVCMGDHWFDV
modifications: YFP fusion
notes: YFP-tagged Parkin E3 ligase expressed from a transfected vector
Take B1: the “cells with no mitochondria” value in experiment [4] (HeLa expressing YFP-Parkin variant, CCCP 24 hours) amounted to 59.0±15.1%. In addition, in experiment [4] (HeLa, 10 μM CCCP, 12 hours), the “mitochondrial mass in Parkin-expressing cells” value is listed as “grossly reduced”. For the same molecule, the “mitochondria detectable in Parkin-expressing cells (Tom20, cytochrome c, TRAP1)” value in experiment [4] (HeLa, 10 μM CCCP, 48 hours) is reported as “no mitochondria remained detectable”.

B2: PINK1: exogenously expressed wild type PINK1 (V5 or myc tagged) (protein, UniProt Q9BXM7 78-581, looked up)
Serine/threonine-protein …: AARLQRQFVVRAWGCAGPCGRAVFLAFGLGLGLIEEKQAESRRAVSACQEIQAIFTQKSKPGPDPLDTRRLQGFRLEEYLIGQSIGKGCSAAVYEATMPTLPQNLEVTKSTGLLPGRGPGTSAPGEGQERAPGAPAFPLAIKMMWNISAGSSSEAILNTMSQELVPASRVALAGEYGAVTYRKSKRGPKQLAPHPNIIRVLRAFTSSVPLLPGALVDYPDVLPSRLHPEGLGHGRTLFLVMKNYPCTLRQYLCVNTPSPRLAAMMLLQLLEGVDHLVQQGIAHRDLKSDNILVELDPDGCPWLVIADFGCCLADESIGLQLPFSSWYVDRGGNGCLMAPEVSTARPGPRAVIDYSKADAWAVGAIAYEIFGLVNPFYGQGKAHLESRSYQEAQLPALPESVPPDVRQLVRALLQREASKRPSARVAANVLHLSLWGEHILALKNLKLDKMVGWLLQQSAATLLANRLTEKCCVETKMKMLFLANLECETLCQAALLLCSWRAAL
modifications: V5 or myc tag
Consider B2, for which, in experiment [1] (PINK1−/− primary MEFs co-transfected with construct, 20 μM CCCP, 3 hours), the “reconstitution of YFP-Parkin recruitment” value is listed as “reconstituted”. In experiment [1] (PINK1−/− primary MEFs expressing the PINK1 construct, 20 μM CCCP, 3 hours), the “YFP-Parkin recruited to mitochondria, % of cells” value was 78.6±3.9%. Besides, the “Parkin recruited to mitochondria, % of cells” value in experiment [1] (SV40 transformed PINK1−/− MEFs with exogenous construct) was found to be 72.8±7.7%. Moreover, in experiment [2], the “cells with no detectable mitochondria” value was 65.5±5.0%. Further, the “cells with no mitochondria” value in experiment [4] (HeLa, co-transfection with Parkin, 96 hours, absence of CCCP) is recorded as 42.1±7.3%. In experiment [3], the “time to translocation of Parkin” value was determined as 5.0 ± 1.5 min.
